T1: EsCas13d, nuclease-dead (Eubacterium siraeum, UniProt B0MS50, R295A;H300A;R849A;H854A)
T1 sequence: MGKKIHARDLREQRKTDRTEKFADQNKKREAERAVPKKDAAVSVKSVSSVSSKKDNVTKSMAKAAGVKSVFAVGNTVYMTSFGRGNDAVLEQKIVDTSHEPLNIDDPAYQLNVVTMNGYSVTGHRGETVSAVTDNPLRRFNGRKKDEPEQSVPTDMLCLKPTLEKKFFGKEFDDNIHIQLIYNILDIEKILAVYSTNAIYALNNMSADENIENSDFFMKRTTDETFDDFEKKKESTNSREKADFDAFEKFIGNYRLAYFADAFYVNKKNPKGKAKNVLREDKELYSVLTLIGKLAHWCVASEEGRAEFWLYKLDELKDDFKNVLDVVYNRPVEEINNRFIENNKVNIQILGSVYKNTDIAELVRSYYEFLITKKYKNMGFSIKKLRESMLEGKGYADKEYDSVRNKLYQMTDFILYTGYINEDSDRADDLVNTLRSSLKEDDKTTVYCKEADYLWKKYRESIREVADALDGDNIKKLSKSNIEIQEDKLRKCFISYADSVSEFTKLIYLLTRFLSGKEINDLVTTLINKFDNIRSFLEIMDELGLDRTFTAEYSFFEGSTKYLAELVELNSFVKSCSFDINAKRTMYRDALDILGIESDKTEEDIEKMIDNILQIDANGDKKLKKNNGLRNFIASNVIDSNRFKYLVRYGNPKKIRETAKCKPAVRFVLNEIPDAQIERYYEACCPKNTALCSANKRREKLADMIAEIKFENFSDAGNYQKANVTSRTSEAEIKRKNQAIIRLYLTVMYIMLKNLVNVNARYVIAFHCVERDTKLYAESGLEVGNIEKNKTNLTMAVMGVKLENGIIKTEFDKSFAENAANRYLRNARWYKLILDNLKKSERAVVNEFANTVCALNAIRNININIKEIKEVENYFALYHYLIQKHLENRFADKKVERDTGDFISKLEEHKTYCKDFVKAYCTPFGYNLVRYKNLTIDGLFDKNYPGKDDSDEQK

B1: target 1 A16C,C22U (mixed)
RNA 1: CACCCGUGCAAAAAUGCAGGGGUCUAAAACUGAGCGGAUAACCUCUCUAUGG
RNA 2: GGGAAUGGAUCCACAUCUACGAAUUCGUAUCAUAGCGAGGUUAUCCGCUCACCGAGAUCGGAAGAGCACACGU
B2: target 1 insA 3' of 19,insU 3' of 2 (mixed)
RNA 1: B1 RNA 1
RNA 2: GGGAAUGGAUCCACAUCUACGAAUUCGUACCAUAAGAGAGGUUAUCCGCUCUACCGAGAUCGGAAGAGCACACGU
B3: target 1 del8,del16 (mixed)
RNA 1: B1 RNA 1
RNA 2: GGGAAUGGAUCCACAUCUACGAAUUCGUACCAUAGGAGGUUACCGCUCACCGAGAUCGGAAGAGCACACGU
B4: target 1 U11G,G17A (mixed)
RNA 1: B1 RNA 1
RNA 2: B1 RNA 2 with U30C, G35A, C36A, U41G
B5: target 1 C2A,A16G (mixed)
RNA 1: B1 RNA 1
RNA 2: B1 RNA 2 with U30C, C36G, C50A
B6: target 1 U11A,C22A (mixed)
RNA 1: B1 RNA 1
RNA 2: B1 RNA 2 with U30A, C36A, U41A
B7: target 1 insU 3' of 6,insG 3' of 6 (mixed)
RNA 1: B1 RNA 1
RNA 2: GGGAAUGGAUCCACAUCUACGAAUUCGUACCAUAGAGAGGUUAUCCUGGCUCACCGAGAUCGGAAGAGCACACGU
B8: target 1 insC 3' of 12,insG 3' of 3 (mixed)
RNA 1: B1 RNA 1
RNA 2: B2 RNA 2 with A35G, G36A, A37G, G38A, A39G, G41C, C51G, U52C
B9: target 1 A9G,G17A (mixed)
RNA 1: B1 RNA 1
RNA 2: B1 RNA 2 with U30C, G35A, C36A, A43G
B10: target 1 C2G,C7U (mixed)
RNA 1: B1 RNA 1
RNA 2: B1 RNA 2 with U30C, C36A, C45U, C50G
B11: target 1 insA 3' of 6,insU 3' of 6 (mixed)
RNA 1: B1 RNA 1
RNA 2: B7 RNA 2 with U47A, G48U
B12: target 1 insU 3' of 17,insU 3' of 17 (mixed)
RNA 1: B1 RNA 1
RNA 2: GGGAAUGGAUCCACAUCUACGAAUUCGUACCAUAGUUAGAGGUUAUCCGCUCACCGAGAUCGGAAGAGCACACGU
B13: target 1 insU 3' of 18,insU 3' of 13 (mixed)
RNA 1: B1 RNA 1
RNA 2: B12 RNA 2 with G35U, U36G, U37A, A38G, G39A, A40G, G41U
B14: target 1 insA 3' of 3,insG 3' of 3 (mixed)
RNA 1: B1 RNA 1
RNA 2: B7 RNA 2 with U47G, G48C, G49U, C50A, U51G
B15: target 1 insG 3' of 11,insU 3' of 4 (mixed)
RNA 1: B1 RNA 1
RNA 2: B7 RNA 2 with U42G, A43U, U44A, C45U, U47C, G49C, C50U
B16: target 1 U3G,U8G (mixed)
RNA 1: B1 RNA 1
RNA 2: B1 RNA 2 with U30C, C36A, U44G, U49G
B17: target 1 U10C,A20U (mixed)
RNA 1: B1 RNA 1
RNA 2: B1 RNA 2 with U30C, A32U, C36A, U42C
B18: target 1 insG 3' of 14,insC 3' of 13 (mixed)
RNA 1: B1 RNA 1
RNA 2: B12 RNA 2 with U36A, U37G, A40G, G41C
B19: target 1 insC 3' of 8,insG 3' of 4 (mixed)
RNA 1: B1 RNA 1
RNA 2: B7 RNA 2 with U47C, G49C, C50G
B20: target 1 insC 3' of 22,insA 3' of 5 (mixed)
RNA 1: B1 RNA 1
RNA 2: B2 RNA 2 with A32C, U33A, A34U, C49A, U50C, C51U, U52C
B21: target 1 insC 3' of 9,insU 3' of 2 (mixed)
RNA 1: B1 RNA 1
RNA 2: B7 RNA 2 with U44C, C45U, U47C, G49C, C50U, U51C, C52U
B22: target 1 C6A,G17U (mixed)
RNA 1: B1 RNA 1
RNA 2: B1 RNA 2 with U30C, G35U, C36A, C46A
B23: target 1 insA 3' of 4,insA 3' of 3 (mixed)
RNA 1: B1 RNA 1
RNA 2: B7 RNA 2 with U47G, G48C, G49A, C50U, U51A
B24: target 1 G17U,C22A (mixed)
RNA 1: B1 RNA 1
RNA 2: B1 RNA 2 with U30A, G35U, C36A
B25: target 1 insA 3' of 13,insU 3' of 5 (mixed)
RNA 1: B1 RNA 1
RNA 2: B7 RNA 2 with G40A, U41G, A43U, U44A, C45U, U47C, G49U
B26: target 1 A14G,G15A (mixed)
RNA 1: B1 RNA 1
RNA 2: B1 RNA 2 with U30C, C36A, G37A, A38G
B27: target 1 insA 3' of 22,insA 3' of 3 (mixed)
RNA 1: B1 RNA 1
RNA 2: B2 RNA 2 with C31A, A32C, U33A, A34U, C51A, U52C
B28: target 1 G13A,A18C (mixed)
RNA 1: B1 RNA 1
RNA 2: B1 RNA 2 with U30C, A34C, C36A, G39A
B29: target 1 del11,del14 (mixed)
RNA 1: B1 RNA 1
RNA 2: B3 RNA 2 with G36A, A37G, U41A, A42U
B30: target 1 insA 3' of 22,insG 3' of 9 (mixed)
RNA 1: B1 RNA 1
RNA 2: GGGAAUGGAUCCACAUCUACGAAUUCGUACACAUAGAGAGGUUAGUCCGCUCACCGAGAUCGGAAGAGCACACGU
B31: target 1 insC 3' of 12,insC 3' of 10 (mixed)
RNA 1: B1 RNA 1
RNA 2: B12 RNA 2 with U36A, U37G, A40G, G41C, G42U, U44C
B32: target 1 del4,del11 (mixed)
RNA 1: B1 RNA 1
RNA 2: B3 RNA 2 with G36A, A37G, G38A, U40G, C43U, G45C, C46G

Numbering of substitutions follows the chain as printed. Names may count otherwise.

In general, Kd refers to a measure of binding affinity in units of concentration. Read a high Kd as lower affinity.

The target of the data set is T1, EsCas13d, nuclease-dead. As to the kind of experiment: crRNA (strand 1, pre-loaded); Mg2+; 40 mM Tris-HCl pH 7.5, 150 mM NaCl, 6 mM MgCl2, 1 mM DTT, 0.1% Tween-20, 0.2 mg/ml BSA; 25 C; 10 min per concentration, then washed. The settings on record: tags: His6-TwinStrep-SUMO cleaved; N-terminal SNAP kept (SNAP-Surface 488); label: 3' end held by stalled T7 RNA polymerase.
Molecule B1 came in with a dissociation constant (Kd) of 57 ± 12 nM.

Molecule B2 registered a Kd of 23 ± 2 nM.

Regarding B3, the Kd came out at 71 ± 18 nM.

The molecule B4 had a Kd of 74 ± 22 nM.

The molecule B5 had a dissociation constant Kd of 28.5 ± 2 nM.

In turn, B6 had a Kd of 47 ± 6 nM.

For B7, binding was characterised by a dissociation constant (Kd) of 13.1 ± 0.5 nM.

In turn, B8 displayed a dissociation constant Kd of 7.6 ± 0.7 nM.

B9 returned a Kd of 57 ± 12 nM.

With B10, the equilibrium dissociation constant (Kd) came to 3.82 ± 0.29 nM.

In the case of B11, the equilibrium dissociation constant (Kd) came to 28.9 ± 1.4 nM.

In turn, B12 came in with a Kd of 27.7 ± 3.2 nM.

As to B13, the Kd came out at 38 ± 14 nM.

B14 showed an equilibrium dissociation constant (Kd) of 6.2 ± 0.5 nM.

B15: the Kd was 65 ± 15 nM.

As for B16, the affinity, expressed as Kd, was 10.8 ± 0.4 nM.

B17 returned a Kd of 99 ± 14 nM.

For B18, the Kd stood at 13.7 ± 0.9 nM.

In turn, B19 gave a Kd of 12.8 ± 0.8 nM.

Turning to B20, the affinity, expressed as Kd, was 19 ± 4 nM.

On to B21, for which the dissociation constant (Kd) was 13.9 ± 0.9 nM.

The molecule B22 registered a dissociation constant (Kd) of 18.7 ± 1.2 nM.

For B23, the Kd worked out at 7.01 ± 0.33 nM.

B24 gave a Kd of 31.3 ± 3 nM.

Consider B25, for which the Kd was 4.34 ± 0.32 nM.

For the molecule B26, the dissociation constant (Kd) was 14.8 ± 1.5 nM.

Molecule B27 showed an equilibrium dissociation constant (Kd) of 11.1 ± 0.6 nM.

In turn, B28 registered a dissociation constant (Kd) of 51 ± 8 nM.

In the case of B29, the dissociation constant (Kd) was found to be 32.4 ± 1.8 nM.

The molecule B30 registered a Kd of 19.6 ± 1 nM.

Molecule B31 showed a Kd of 23.9 ± 2.9 nM.

As for B32, the Kd turned out to be 100 ± 40 nM.
